Measured values taken from publication PMC2822101 (Journal of molecular biology, 2009).

B1: aggregated glucose-6-phosphate dehydrogenase (G6PDH) from Leuconostoc mesenteroides (enzyme, UniProt P11411 1-486, looked up)
chain: MVSEIKTLVTFFGGTGDLAKRKLYPSVFNLYKKGYLQKHFAIVGTARQALNDDEFKQLVRDSIKDFTDDQAQAEAFIEHFSYRAHDVTDAASYAVLKEAIEEAADKFDIDGNRIFYMSVAPRFFGTIAKYLKSEGLLADTGYNRLMIEKPFGTSYDTAAELQNDLENAFDDNQLFRIDHYLGKEMVQNIAALRFGNPIFDAAWNKDYIKNVQVTLSEVLGVEERAGYYDTAGALLDMIQNHTMQIVGWLAMEKPESFTDKDIRAAKNAAFNALKIYDEAEVNKYFVRAQYGAGDSADFKPYLEELDVPADSKNNTFIAGELQFDLPRWEGVPFYVRSGKRLAAKQTRVDIVFKAGTFNFGSEQEAQEAVLSIIIDPKGAIELKLNAKSVEDAFNTRTIDLGWTVSDEDKKNTPEPYERMIHDTMNGDGSNFADWNGVSIAWKFVDAISAVYTADKAPLETYKSGSMGPEASDKLLAANGDAWVFKG

What was measured:
Assay in all cases: retention with aggregates on a 0.1-μm filter, SDS-PAGE
DnaK = DnaK (UniProt P0A6Y8 1-638)
ClpB95(E279Q/E678Q) = ClpB95(E279Q/E678Q) (E. coli, UniProt P63284 1-857, E279Q | E678Q)
[1] = target: B1

Row | binding result (DnaK) | binding result (ClpB95(E279Q/E678Q)) | binding result [1] | Binder
1 | binds | binds |  | B1
2 |  |  | binds | DnaJ (natural protein, UniProt P08622 1-376, looked up) MAKQDYYEILGVSKTAEEREIRKAYKRLAMKYHPDRNQGDKEAEAKFKEIKEAYEVLTDSQKRAAYDQYGHAAFEQGGMGGGGFGGGADFSDIFGDVFGDIFGGGRGRQRAARGADLRYNMELTLEEAVRGVTKEIRIPTLEECDVCHGSGAKPGTQPQTCPTCHGSGQVQMRQGFFAVQQTCPHCQGRGTLIKDPCNKCHGHGRVERSKTLSVKIPAGVDTGDRIRLAGEGEAGEHGAPAGDLYVQVQVKQHPIFEREGNNLYCEVPINFAMAALGGEIEVPTLDGRVKLKVPGETQTGKLFRMRGKGVKSVRGGAQGDLLCRVVVETPVGLNERQKQLLQELQESFGGPTGEHNSPRSKSFFDGVKKFFDDLTR
